# Assays:
# [1] = target: Enterococcus faecalis FabN dehydratase/isomerase, hexahistidine-tagged (Enterococcus faecalis (strain FA2-2)); assay: SEC
# [2] = target: Enterococcus faecalis FabO 3-ketoacyl-ACP synthase I, hexahistidine-tagged (Enterococcus faecalis (strain FA2-2)); assay: SEC
Substance,stoichiometry N [1],stoichiometry N [2]
"Enterococcus faecalis FabN dehydratase/isomerase, hexahistidine-tagged (enzyme)",6,
"Enterococcus faecalis FabO 3-ketoacyl-ACP synthase I, hexahistidine-tagged (enzyme)",,2

# — article PMC9671860
